Publication PMC8307404, “Crystal Structure-Guided Design of Bisubstrate Inhibitors and Photoluminescent Probes for Protein Kinases of the PIM Family” (Molecules, 2021)
Square brackets hold non-standard residues; d marks the D form. Peptide text beside a SMILES is read from it. * marks the point of attachment. X3 = O=C(CCCCCNCc1nc2c(sc3cc(Br)cnc32)c(=O)[nH]1)*

Legend:
Test in all cases: Kinase profiling (radiometric filter-binding)
Type in all cases: biochemical
CDK2-Cyclin A = CDK2-Cyclin A (Homo sapiens, UniProt P24941); settings: 1 µM inhibitor, read-out: Residual activity, %
Method in brief: (§1)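 Residual kinase activity, as a percentage of the inhibitor-free control, was measured at 1 µM final compound by radiometric filter binding. Each human enzyme was run with ATP no higher than its own KM.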

CK1δ = CK1δ (Homo sapiens, UniProt P48730); settings: 1 µM inhibitor, read-out: Residual activity, %
Method in brief: as §1

DYRK2 = biological target: T1, DYRK2 (Homo sapiens, UniProt Q92630); settings: DYRK2, 1 µM inhibitor; read-out: Residual activity, %
T1 sequence (Q92630 1-601): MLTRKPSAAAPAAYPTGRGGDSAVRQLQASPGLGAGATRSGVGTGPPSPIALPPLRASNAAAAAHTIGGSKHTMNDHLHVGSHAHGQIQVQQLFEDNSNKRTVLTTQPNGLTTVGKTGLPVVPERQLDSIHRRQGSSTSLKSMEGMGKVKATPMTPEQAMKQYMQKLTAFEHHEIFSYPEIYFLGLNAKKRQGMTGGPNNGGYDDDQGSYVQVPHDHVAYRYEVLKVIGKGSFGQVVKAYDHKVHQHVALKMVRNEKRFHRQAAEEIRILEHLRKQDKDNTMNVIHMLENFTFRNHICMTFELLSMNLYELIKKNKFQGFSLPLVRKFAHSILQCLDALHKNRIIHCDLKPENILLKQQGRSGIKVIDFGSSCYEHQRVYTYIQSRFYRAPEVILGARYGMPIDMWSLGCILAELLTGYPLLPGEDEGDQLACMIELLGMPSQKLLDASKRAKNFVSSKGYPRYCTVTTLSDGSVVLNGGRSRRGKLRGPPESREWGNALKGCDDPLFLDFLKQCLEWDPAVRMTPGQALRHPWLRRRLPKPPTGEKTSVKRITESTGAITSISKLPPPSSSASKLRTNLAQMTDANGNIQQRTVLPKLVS
Method in brief: as §1

EPH-B3 = biological target: T2, EPH-B3 (Homo sapiens, UniProt P54753); settings: EPH-B3, 1 µM inhibitor; read-out: Residual activity, %
T2 sequence (P54753 34-998): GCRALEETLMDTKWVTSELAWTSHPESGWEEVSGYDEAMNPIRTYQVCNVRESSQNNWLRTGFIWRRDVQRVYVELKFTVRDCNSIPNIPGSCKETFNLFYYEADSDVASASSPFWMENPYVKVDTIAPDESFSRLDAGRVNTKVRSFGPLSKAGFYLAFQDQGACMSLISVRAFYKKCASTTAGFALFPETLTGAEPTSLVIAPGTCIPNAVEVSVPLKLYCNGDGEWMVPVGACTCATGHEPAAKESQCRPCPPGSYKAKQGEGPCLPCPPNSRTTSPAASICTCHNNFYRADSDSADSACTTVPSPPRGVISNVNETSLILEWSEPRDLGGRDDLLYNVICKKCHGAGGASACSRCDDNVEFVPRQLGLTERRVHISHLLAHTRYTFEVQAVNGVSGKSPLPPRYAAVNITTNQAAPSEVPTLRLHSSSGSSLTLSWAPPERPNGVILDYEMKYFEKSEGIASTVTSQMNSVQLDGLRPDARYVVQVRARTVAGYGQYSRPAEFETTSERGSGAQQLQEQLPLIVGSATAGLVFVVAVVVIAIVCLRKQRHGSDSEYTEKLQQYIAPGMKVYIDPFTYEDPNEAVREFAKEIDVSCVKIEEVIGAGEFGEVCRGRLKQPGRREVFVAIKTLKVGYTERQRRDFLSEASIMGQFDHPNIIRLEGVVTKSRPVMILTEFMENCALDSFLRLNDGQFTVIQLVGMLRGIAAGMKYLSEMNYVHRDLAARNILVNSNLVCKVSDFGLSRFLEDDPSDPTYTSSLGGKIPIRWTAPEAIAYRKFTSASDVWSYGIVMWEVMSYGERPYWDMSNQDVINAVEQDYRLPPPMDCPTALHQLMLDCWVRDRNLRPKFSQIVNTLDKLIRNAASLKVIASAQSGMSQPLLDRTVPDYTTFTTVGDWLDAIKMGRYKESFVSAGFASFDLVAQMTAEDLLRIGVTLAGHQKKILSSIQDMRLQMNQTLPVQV
Method in brief: as §1

MKK2 = MKK2 (Homo sapiens, UniProt P36507); settings: MKK2, 1 µM inhibitor; read-out: Residual activity, %
Method in brief: as §1

PKCγ = PKCγ (Homo sapiens, UniProt P05129); settings: 1 µM inhibitor, read-out: Residual activity, %
Method in brief: as §1

TGFBR1 = biological target: T3, TGFBR1 (Homo sapiens, UniProt P36897); settings: TGFBR1, 1 µM inhibitor; read-out: Residual activity, %
T3 sequence (P36897 34-503): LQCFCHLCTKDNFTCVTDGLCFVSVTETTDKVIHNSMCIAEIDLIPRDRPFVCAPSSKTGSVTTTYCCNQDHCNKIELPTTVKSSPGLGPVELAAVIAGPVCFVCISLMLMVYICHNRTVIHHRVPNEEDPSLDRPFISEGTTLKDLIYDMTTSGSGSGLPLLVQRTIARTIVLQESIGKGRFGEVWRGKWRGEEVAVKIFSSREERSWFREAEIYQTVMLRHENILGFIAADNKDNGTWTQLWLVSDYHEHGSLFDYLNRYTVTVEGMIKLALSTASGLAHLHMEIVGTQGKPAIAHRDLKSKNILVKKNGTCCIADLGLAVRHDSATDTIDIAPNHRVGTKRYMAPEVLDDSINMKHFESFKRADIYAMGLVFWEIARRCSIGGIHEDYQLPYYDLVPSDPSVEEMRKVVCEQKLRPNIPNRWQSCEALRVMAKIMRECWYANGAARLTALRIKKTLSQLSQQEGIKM
Method in brief: as §1

MKK2, sequence (P36507 whole entry): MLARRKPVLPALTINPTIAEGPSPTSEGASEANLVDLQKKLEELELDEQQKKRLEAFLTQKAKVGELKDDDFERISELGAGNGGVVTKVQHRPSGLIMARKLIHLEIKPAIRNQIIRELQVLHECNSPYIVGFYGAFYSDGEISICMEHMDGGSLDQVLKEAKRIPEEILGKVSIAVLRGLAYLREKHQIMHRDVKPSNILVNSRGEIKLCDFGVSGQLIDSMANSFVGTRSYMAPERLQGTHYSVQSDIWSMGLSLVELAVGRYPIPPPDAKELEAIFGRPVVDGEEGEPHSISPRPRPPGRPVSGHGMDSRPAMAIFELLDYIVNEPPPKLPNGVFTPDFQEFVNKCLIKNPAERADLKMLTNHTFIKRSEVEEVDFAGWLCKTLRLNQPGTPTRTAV
CK1δ, sequence (P48730 whole entry): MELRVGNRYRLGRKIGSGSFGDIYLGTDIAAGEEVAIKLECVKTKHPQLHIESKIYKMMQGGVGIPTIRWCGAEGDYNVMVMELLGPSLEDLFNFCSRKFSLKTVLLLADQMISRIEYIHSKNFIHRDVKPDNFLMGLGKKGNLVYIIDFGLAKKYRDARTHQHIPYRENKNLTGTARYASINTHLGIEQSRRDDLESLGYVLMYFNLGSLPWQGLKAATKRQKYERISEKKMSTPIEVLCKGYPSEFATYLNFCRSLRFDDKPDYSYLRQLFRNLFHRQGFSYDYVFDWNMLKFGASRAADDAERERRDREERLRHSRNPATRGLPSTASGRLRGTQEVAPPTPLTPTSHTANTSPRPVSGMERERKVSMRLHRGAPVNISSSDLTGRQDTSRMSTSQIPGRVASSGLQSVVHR

Compound | remaining activity at 1 µM (CDK2-Cyclin A) | remaining activity at 1 µM (CK1δ) | remaining activity at 1 µM (DYRK2) | remaining activity at 1 µM (EPH-B3) | remaining activity at 1 µM (MKK2) | remaining activity at 1 µM (PKCγ) | remaining activity at 1 µM (TGFBR1)
N=C(N)NCCC[C@@H](NC(=O)CNC(=O)[C@@H](CCCNC(=N)N)NC(=O)[C@@H](CCCNC(=N)N)NC(=O)CCCCCCCNCc1nc2c(sc3cc(Br)cnc32)c(=O)[nH]1)C(=O)N[C@H](CCCCN)C(N)=O [Compound 1, BPTP-Aoc-(D-Arg)2-Gly-D-Arg-D-Lys-NH2] | 106 ± 12% | 104 ± 4% | 85 ± 17% | 107 ± 26% | 102 ± 5% | 99 ± 11% | 103 ± 8%
N=C(N)NCCC[C@@H](NC(=O)CCCCCNCc1nc2c(sc3cc(Br)cnc32)c(=O)[nH]1)C(=O)N[C@H](CCCNC(=N)N)C(=O)N[C@H](CCCNC(=N)N)C(=O)N[C@H](CCCNC(=N)N)C(=O)N[C@H](CCCNC(=N)N)C(=O)N[C@H](CCCNC(=N)N)C(=O)N[C@H](CCCCN)C(N)=O [ARC-3126, BPTP-Ahx-(D-Arg)6-D-Lys-NH2] (X3-[dR][dR][dR][dR][dR][dR][dK]-NH2) | 106 ± 5% | 99 ± 1% | 88 ± 6% | 94 ± 10% | 117 ± 14% | 98 ± 8% | 109 ± 2%
N=C(N)NCCC[C@@H](NC(=O)CCCCCNC(=O)Cn1cnc2c(I)c(I)c(I)c(I)c21)C(=O)N[C@H](CCCNC(=N)N)C(=O)N[C@H](CCCNC(=N)N)C(=O)N[C@H](CCCNC(=N)N)C(=O)N[C@H](CCCNC(=N)N)C(=O)N[C@H](CCCNC(=N)N)C(=O)N[C@H](CCCCN)C(N)=O [ARC-3125, TIBI-CH2-C(=O)-Ahx-(D-Arg)6-D-Lys-NH2] | 17 ± 1% | 71 ± 4% | 54 ± 6% | 104 ± 3% | 68 ± 5% | 86 ± 9% | 108 ± 18%
N=C(N)NCCC[C@@H](NC(=O)CNC(=O)[C@@H](CCCNC(=N)N)NC(=O)[C@@H](CCCNC(=N)N)NC(=O)CCCCCCCNCc1nc2c(sc3ccc(Br)cc32)c(=O)[nH]1)C(=O)N[C@H](CCCCN)C(N)=O [Compound 2, BBTP-Aoc-(D-Arg)2-Gly-D-Arg-D-Lys-NH2] | 105 ± 9% | 99 ± 3% | 64 ± 5% | 106 ± 2% | 108 ± 11% | 97 ± 3% | 106 ± 7%
N=C(N)NCCC[C@@H](NC(=O)CNC(=O)[C@@H](CCCNC(=N)N)NC(=O)[C@@H](CCCNC(=N)N)NC(=O)Cn1cc(CNCc2nc3c(sc4ccc(Br)cc43)c(=O)[nH]2)nn1)C(=O)N[C@H](CCCCN)C(N)=O [Compound 3, BBTP-Amt-(D-Arg)2-Gly-D-Arg-D-Lys-NH2] | 100% | 88 ± 12% | 83 ± 22% | 79 ± 3% | 96 ± 7% | 105 ± 9% | 95 ± 10%
